Test results published in patent US20210130436A1 (published 2021).
Residue numbers refer to the chain shown, from its start. In names and notes the source's numbering stands.

B1: CD80 E35D/D46V/M47V/N48K/V68M IgV-Fc (Fc fusion, not shown: small tags and cut ends; a dimerising Fc or GST)
chain: VIHVTKEVKEVATLSCGHNVSVEELAQTRIYWQKDKKMVLTMMSGVVKIWPEYKNRTIFDITNNLSIMILALRPSDEGTYECVVLKYEKDAFKREHLAEVTLSVKAD
B2: CD80 E35D/D46V/M47V/V68M/L85Q IgV-Fc (Fc fusion, not shown: small tags and cut ends; a dimerising Fc or GST)
chain: B1 chain with K48N, L85Q
B3: CD80 E35D/M47V/N48K/K89N IgV-Fc (Fc fusion, not shown: small tags and cut ends; a dimerising Fc or GST)
chain: B1 chain with V46D, M68V, K89N
B4: CD80 E35D/M47V/N48K/V68M/L85Q IgV-Fc (Fc fusion, not shown: small tags and cut ends; a dimerising Fc or GST)
chain: B1 chain with V46D, L85Q
B5: CD80 E35D/M47V/V68M/L85Q/K89N IgV-Fc (Fc fusion, not shown: small tags and cut ends; a dimerising Fc or GST)
chain: B1 chain with V46D, K48N, L85Q, K89N
B6: CD80 E35D/N48K/K89N IgV-Fc (Fc fusion, not shown: small tags and cut ends; a dimerising Fc or GST)
chain: B1 chain with V46D, V47M, M68V, K89N
B7: CD80 M47V/N48K/K89N IgV-Fc (Fc fusion, not shown: small tags and cut ends; a dimerising Fc or GST)
chain: B1 chain with D35E, V46D, M68V, K89N
B8: CD80 M47V/N48K/V68M IgV-Fc (Fc fusion, not shown: small tags and cut ends; a dimerising Fc or GST)
chain: B1 chain with D35E, V46D
B9: CD80 IgV-Fc T13R/Q33R/E35D/M38I/M47L/V68M/L85M (Fc fusion, not shown: a dimerising Fc or GST)
chain: B1 chain with T13R, Q33R, M38I, V46D, V47L, K48N, L85M
B10: CD80 IgV-Fc T13R/Q33R/E35D/M47L/V68M (Fc fusion, not shown: a dimerising Fc or GST)
chain: B1 chain with T13R, Q33R, V46D, V47L, K48N
B11: CD80 IgV-Fc T13R/Q33R/E35D/M47L/V68M/L85M (Fc fusion, not shown: a dimerising Fc or GST)
chain: B1 chain with T13R, Q33R, V46D, V47L, K48N, L85M

Target: T1, human PD-L1 expressed on CHO cells (human, UniProt Q9NZQ7 19-290)
T1 construct: whole, on cells; Target on CHO cells stably expressing PD-L1; also called huPD-L1
Assay: flow cytometry; MFI on PD-L1 cells over MFI on CD28 (Jurkat) cells at 33.3 nM

T1 sequence (Q9NZQ7 19-290): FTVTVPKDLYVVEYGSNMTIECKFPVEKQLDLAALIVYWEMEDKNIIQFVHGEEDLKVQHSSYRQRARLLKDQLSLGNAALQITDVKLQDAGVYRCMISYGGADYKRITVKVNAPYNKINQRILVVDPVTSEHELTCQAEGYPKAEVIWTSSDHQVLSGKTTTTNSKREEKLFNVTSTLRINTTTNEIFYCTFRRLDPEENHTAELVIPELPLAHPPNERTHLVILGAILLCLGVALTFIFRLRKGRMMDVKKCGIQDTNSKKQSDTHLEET

Binder | Ratio of PDL1:CD28 [ratio]
B1 | 23.9
B2 | 79.4
B3 | 9.5
B4 | 88.8
B5 | 49.1
B6 | 14
B7 | 6.5
B8 | 22.6

Target: T2, CD28 endogenously expressed on Jurkat/IL2 reporter cells (human, UniProt P10747 19-220)
T2 construct: whole, on cells; Target on Jurkat cells; also called Jurkats (CD28)
Assay: flow cytometry, Jurkat cells (CD28); MFI relative to WT CD80 ECD-Fc (Abcam)

Binder | Fold change to WT CD80 [fold]
B1 | 1.5
B2 | 0.5
B3 | 1
B4 | 0.2
B5 | 0.3
B6 | 0.6
B7 | 0.5
B8 | 0.9

Target: T3, human PD-L1 (human, UniProt Q9NZQ7 19-290)
T3 construct: also called huPD-L1; CD274
Assay: flow cytometry; PD-L1 MFI over CD28 MFI

T3 sequence (Q9NZQ7 19-290): as above

Binder | Ratio of PDL1:CD28 [ratio]
B9 | 77.9
B10 | 1040
B11 | 169

Target: T4, human CTLA4 expressed on CHO cells (human, UniProt P16410 36-223)
T4 construct: whole, on cells; Target on CHO cells stably expressing CTLA4; also called huCTLA4
Assay: flow cytometry, CHO cells stably expressing CTLA4; MFI relative to WT CD80 ECD-Fc (Abcam)

T4 sequence (P16410 36-223): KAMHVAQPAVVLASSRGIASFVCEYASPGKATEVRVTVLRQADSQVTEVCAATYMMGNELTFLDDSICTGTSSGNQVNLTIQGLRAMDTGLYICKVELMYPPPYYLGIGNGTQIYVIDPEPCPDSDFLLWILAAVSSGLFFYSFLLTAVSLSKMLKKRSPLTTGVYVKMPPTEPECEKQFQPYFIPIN

Binder | Fold change to WT CD80 [fold]
B1 | 0.6
B2 | 0.9
B3 | 1.1
B4 | 0.6
B5 | 0.7
B6 | 0.9
B7 | 1
B8 | 0.9

Target: human CD28 (human, UniProt P10747 19-220)
Assay: flow cytometry, Jurkat cells (CD28)

Binder | Fold change to WT CD80 [fold] | MFI at 33.3 nM [MFI]
B9 | 0.5 | 14.2
B10 | 0.4 | 14.1
B11 | 3.6 | 112

Target: T2, CD28 endogenously expressed on …
Assay: flow cytometry, Jurkat cells (CD28), Fc fusion at 33.3 nM

Binder | MFI at 33.3 nM [MFI]
B1 | 1080
B2 | 331
B3 | 701
B4 | 118
B5 | 246
B6 | 411
B7 | 366
B8 | 641

Target: T1, human PD-L1 expressed on CHO cells
Assay: flow cytometry, CHO cells stably expressing PD-L1; MFI relative to WT CD80 ECD-Fc (Abcam)

Binder | Fold change to WT CD80 [fold]
B1 | 203
B2 | 205
B3 | 52.1
B4 | 81.9
B5 | 94.4
B6 | 45
B7 | 18.5
B8 | 113

Target: T3, human PD-L1
Assay: flow cytometry, CHO cells stably expressing PD-L1

Binder | Fold change to WT CD80 [fold] | MFI at 33.3 nM [MFI]
B9 | 21.5 | 1110
B10 | 285 | 14700
B11 | 368 | 18900

Target: T4, human CTLA4 expressed on CHO cells
Assay: flow cytometry, CHO cells stably expressing CTLA4, Fc fusion at 33.3 nM

Binder | MFI at 33.3 nM [MFI]
B1 | 23900
B2 | 36500
B3 | 43800
B4 | 26100
B5 | 30300
B6 | 34700
B7 | 42100
B8 | 34600

Target: T1, human PD-L1 expressed on CHO cells
Assay: flow cytometry, CHO cells stably expressing PD-L1, Fc fusion at 33.3 nM

Binder | MFI at 33.3 nM [MFI]
B1 | 25900
B2 | 26300
B3 | 6670
B4 | 10500
B5 | 12100
B6 | 5770
B7 | 2370
B8 | 14500

Target: T5, human CTLA-4 (human, UniProt P16410 36-223)
T5 construct: also called huCTLA4
Assay: flow cytometry, CHO cells stably expressing CTLA4

T5 sequence (P16410 36-223): as above

Binder | Fold change to WT CD80 [fold] | MFI at 33.3 nM [MFI]
B9 | 12.6 | 22000
B10 | 11.8 | 20700
B11 | 7.7 | 13400
